Data as given in publication PMC2600739 (The Journal of Cell Biology, 2008).

Biological target: the molecule itself
Assay: cross-linking

B1: JAM-L–HA (p513-JAM-L-HA vector), wild type (natural protein, human, UniProt Q86YT9 20-394, looked up)
chain: LNDLNVSPPELTVHVGDSALMGCVFQSTEDKCIFKIDWTLSPGEHAKDEYVLYYYSNLSVPIGRFQNRVHLMGDILCNDGSLLLQDVQEADQGTYICEIRLKGESQVFKKAVVLHVLPEEPKELMVHVGGLIQMGCVFQSTEVKHVTKVEWIFSGRRAKEEIVFRYYHKLRMSVEYSQSWGHFQNRVNLVGDIFRNDGSIMLQGVRESDGGNYTCSIHLGNLVFKKTIVLHVSPEEPRTLVTPAALRPLVLGGNQLVIIVGIVCATILLLPVLILIVKKTCGNKSSVNSTVLVKNTKKTNPEIKEKPCHFERCEGEKHIYSPIIVREVIEEEEPSEKSEATYMTMHPVWPSLRSDRNNSLEKKSGGGMPKTQQAF
- stoichiometry N: 2
